Substrate in this data set: C[C@H](NC(=O)CCC(=O)O)C(=O)N[C@@H](C)C(=O)N1CCC[C@H]1C(=O)N[C@@H](Cc1ccccc1)C(=O)Nc1ccc([N+](=O)[O-])cc1
In words: purified protein, by the assay type. The format is biochemical, Toxoplasma gondii. The settings on record: other: substrate AAPF, 0 °C, pH 8.0.

Method: A trans-isomer is formed by Cyp, which is selectively cleaved by chymotrypsin, producing 4-nitroaniline, a yellow-colored product that can be measured spectrophotometrically.
The assay was performed in 50 mM Hepes, pH 8, and 100 mM NaCl at 0 °C. […] Once the temperature reached 0 °C, chymotrypsin solution, dissolved in HCl 1 mM, was added at 1.8 mg mL^–1 to start the reaction.
Successively, Cyp was added in large excess to enhance the cis-to-trans isomerization. The cis population was estimated by the difference between the final and the initial absorbance.
For all of the experiments, the slope of the catalyzed reaction was corrected for the spontaneous thermal cis–trans isomerization in the presence of the only chymotrypsin.
All measurements were repeated as triplicate, and the error was calculated as the mean standard error of the three measurements. The error associated with the parameter kcat/Km was propagated in agreement with the following equation eq 1 [drawing 1]

B1: TgCyp18.4 (Toxoplasma gondii VEG) (protein)
chain: MSVTIKTNLGDLKAELYCQQAPKTCKNFLALCASDYYNGTRFHRNIKGFAIQGGDPTGTGKGGESIYGGLFEDEFVSSLKHDRRGILSMANQGKPNTNGSQFFITYCRQPHLNGVYSVFGRLIDGMDTLDKMEREPVGRKNRPENDIIIEQVIIHANPIAEMDQL
In the case of B1, the Km worked out at 286 ± 39 µM, the catalytic constant (kcat) is 2.8 ± 0.4 s⁻¹ and the kcat/Km came out at 10000 ± 2000 M⁻¹ s⁻¹.

What is called Km is the concentration of substrate that gives half-maximal velocity. A word on the kcat: it is the number of substrate molecules converted per active site and unit of time at saturation. As a reminder, the kcat/Km is the turnover number divided by the Michaelis constant.

These data come from publication PMC9926490, “Structural Basis for Cyclosporin Isoform-Specific Inhibition of Cyclophilins from Toxoplasma gondii” (ACS Infectious Diseases, 2023).
